The target of experiment [1] is FbpA-C (Borrelia miyamotoi strain FR64b) (UniProt W5SFZ1). Description: SPR; FbpA-C, FbpB-C or FbpA DA-C immobilised by amine coupling; C1r-CCP2-SP injected, twofold dilution series 0-100 nM, multi-cycle; Biacore T200, 25°C, 30 μL/min; kinetic fits. For orientation: SPR reads the build-up and loss of mass on a sensor chip optically.
For experiment [2], the target named is serum C1r (human (endogenous in normal human serum)).
Experiment [3] addresses MBP-FbpA-N (Borrelia miyamotoi strain FR64b). Description: SPR; MBP-Fbp-N fusion proteins immobilised by amine coupling on CMD200 chips; human plasma fibronectin injected, twofold dilution series up to 500 nM, multi-cycle; Biacore T200, 25°C, 30 μL/min, HBS-T; steady-state affinity fits.

This note sets out measurements from publication PMC9186069.

As to C1r-CCP2-SP (domain or fragment), in experiment [1], the Kd amounted to 0.0009 µM, the koff is 0.00031 s⁻¹ and the kon turned out to be 330000 M⁻¹ s⁻¹.
Turning to “FbpA-C (from UniProt W5SFZ1 222-371) (domain or fragment)”, in experiment [2], the IC50 of inhibition of classical pathway complement activation (ELISA-based assay, C4b deposition, normal human serum) turned out to be 0.023 µM and the IC50 of inhibition of classical pathway hemolysis (pre-sensitized sheep erythrocytes, 2% normal human serum) amounted to 0.22 µM.
As to “FbpB-C (from UniProt A0A0U2RP97 264-432) (domain or fragment)”, the IC50 of inhibition of classical pathway complement activation (ELISA-based assay, C4b deposition, normal human serum) in experiment [2] was 1.9 µM.
In experiment [3], “human fibronectin (from UniProt P02751) (natural protein)” yielded a Kd of 0.17 µM. This counts as sub-micromolar.

In general, Kd refers to the constant that tells how readily two partners part at equilibrium. A lower Kd goes with higher affinity. Usually koff stands for a measure of how fast the partners let go of each other. A low value points to a long-lived complex. In general, kon refers to a measure of how fast the partners come together.
